“Also recorded” adds a separate entry of the source. Marks after values point to notes of the source that are not given here. No end group written: not given here. *: point of attachment. His tag = six-residue histidine tag at the N-terminus, N[C@@H](Cc1c[nH]cn1)C(=O)N[C@@H](Cc1c[nH]cn1)C(=O)N[C@@H](Cc1c[nH]cn1)C(=O)N[C@@H](Cc1c[nH]cn1)C(=O)N[C@@H](Cc1c[nH]cn1)C(=O)N[C@@H](Cc1c[nH]cn1)C(=O)*
How the values were obtained:
[1] = test system: Escherichia coli (UTI89); test: SYTOX Green bacterial cell death / membrane permeabilization assay; format: cell-based; details: 3 hours, FIG. 1, compared to full-length
Experimental: (§1) Assays of the permeabilization of bacterial membrane were performed with SYTOX green nucleic acid stain (Invitrogen™). The overnight cultures of bacteria were centrifuged at 5000 rpm for 5 min, the pellets were then washed with water and resuspended in water with an OD=0.5. 90 μl of each bacteria were then incubated with 10 μl of peptides with different concentrations for 3 hours at 37° C. in a 96-well plate. 100 μl of 2 μM SYTOX Green (Invitrogen™) were then added to each well and incubated in dark for 15 min. SYTOX green penetrates cells with compromised membranes not the membranes of live cells. The increase of fluorescence was measured using […] filters for excitation and emission wavelengths, respectively. Bacteria alone and bacteria treated with 70% ethanol were used as controls and the fluorescence from each was recorded as Fmin and Fmax. The percentage of cell death at each concentration for each fragment was calculated as below: death %=(F−Fmin)/(Finax−Fmin)*100%
(§2) To confirm the accuracy of our MIC/MBC data, cell death assays using SYTOX Green (Invitrogen), which selectivity labels nucleic acids of cells with compromised membranes of dead/dying cells were performed. Overnight cultures of bacteria were centrifuged at 5000 rpm for 5 minutes. Pellets were then washed with PBS (pH 7.4) and resuspended in PBS to an OD600 of 0.5 for Escherichia coli (UTI89) and OD600 of 0.8 for Staphylococcus saprophyticus. Per manufacturerer's instructions, 90 μl of each bacteria strain were incubated with 100 μl of 2 uM SYTOX Green for 15 minutes. Ten microliters of peptides at various concentrations were added for 3 hours at 37° C. in a 96-well plate. Compromised bacterial membranes of dead/dying cells will be labeled while lives cells are not labeled as noted by Invitrogen. Fluorescence was measured using 485 and 520-nm filters for excitation and emission wavelengths, respectively. Untreated bacteria were used as a 100% live control, and fluorescence was noted as Fmin. To elicit complete killing, bacteria were treated with 70% ethanol for 1 hour. This experimental group's fluorescence was noted as Fmax. The percentage of cell death at each concentration for each fragment was calculated as (Ffragment−Fmin)/(Fmax−Fmin)×100%.

[2] = test system: Staphylococcus saprophyticus; test: as above; format: cell-based; details: 3 hours, FIG. 2, compared to full-length
Experimental: as §1, §2

[3] = test system: Escherichia coli (UTI89); test: Antimicrobial kill (microdilution) assay, MIC/MBC by CFU count; format: cell-based; details: for MIC/MBC fold higher than full-length protein, E. coli: compared to full-length RNase 7; for E. coli MIC: lowest concentration that inhibits the growth of 90% of the inoculation; for E. coli MIC / E. coli MBC: 3 hours, 0.1×PBS; for E. coli MBC: minimum bactericidal concentration; for antimicrobial activity against E. coli (in words): MIC/MBC based, mostly compared to full-length RNase 7
Experimental: (§3) The antimicrobial activity of RNase 7 and its fragments was estimated using a microdilution assay. Briefly, test bacteria (10^5) were incubated with several concentrations of RNase 7 and each fragment in 50 μl 0.1×PBS buffer for 3 hours in a 37° C. incubator. Each reaction was plated on the appropriate medium and grew overnight at 37° C. The antimicrobial activity was determined by the number of colony-forming units (CFUs) the following day. The minimum inhibition concentration (MIC) is defined as the lowest concentration that inhibits the growth of 90% of the inoculation and the minimum bactericidal concentration (MB C) is defined as the lowest concentration at which less than 99.99% of the initial inoculum is viable.
(§4) Antimicrobial activities of the recombinant peptides were estimated with a microdilution assay. Briefly, the test bacteria (10^4 CFUs) were incubated with various concentrations of RNase 7 and each fragment in 50 ul 0.1×PBS buffer for 3 hours at 37° C. After incubation on Agar plates overnight at 37° C., the number of colony-forming units (CFUs) at each peptide concentration was determined. Using untreated bacterial aliquots as baseline, the minimum inhibition concentration (MIC) was defined as the lowest concentration that inhibits the growth of 90% of the inoculation, and the minimum bactericidal concentration (MBC) was defined as the lowest concentration at which less than 99.99% of the initial inoculum is viable.

[4] = test system: Staphylococcus saprophyticus (ATCC 15305); test: as above; format: cell-based; details: for MIC/MBC fold higher than full-length protein, S. saprophyticus: compared to full-length RNase 7; for S. saprophyticus MIC: lowest concentration that inhibits the growth of 90% of the inoculation; for S. saprophyticus MIC / S. saprophyticus MBC: 3 hours, 0.1×PBS; for S. saprophyticus MBC: minimum bactericidal concentration
Experimental: as §3, §4

[5] = test system: Proteus mirabilis (ATCC 7002); test: as above; format: cell-based; details: 3 hours, 0.1×PBS; for P. mirabilis MIC: lowest concentration that inhibits the growth of 90% of the inoculation; for P. mirabilis MBC: minimum bactericidal concentration
Experimental: Uropathogenic Escherichia coli (UTI89) was grown in Luria broth (LB) medium and plated on LB-agar. Uropathogenic Staphylococcus saprophyticus (ATCC 15305) was grown in LB and plated on Trypticase Soy Agar with 5% sheep blood (Fisher Scientific, Pittsburgh, Pa., USA). Uropathogenic Proteus mirabilis (ATCC 7002) was grown in LB and plated on MacConkey II Agar (Fisher Scientific, Pittsburgh, Pa., USA). These organisms were chosen as the primary organisms that account for a majority of Gram-negative and Gram-positive urinary tract infections (UTI). Anti-RNase 7 antibody was generated in rabbit with recombinant human RNase 7 (Biomatik, Wilmington, Del., USA)
as §4

[6] = test system: uropathogenic E. coli; test: RNase7 antibacterial activity, MIC on strains isolated from positive urine cultures; format: cell-based, Escherichia coli; details: uropathogenic E. coli isolated from urine cultures (N=3)
Description: Laboratory bacterial strains from the American Type Culture Collection (ATCC, Manassas, Va.) and strains isolated from positive urine cultures were obtained from the Microbiology Laboratory at Nationwide Children's Hospital.

Molecule | membrane permeabilization and death, E. coli (in words) [1] | membrane permeabilization and death, S. saprophyticus (in words) [2] | MIC/MBC fold higher than full-length protein, E. coli [3] | E. coli MIC [3] | E. coli MBC [3] [µM] | MIC/MBC fold higher than full-length protein, S. saprophyticus [4] | S. saprophyticus MIC [4] [µM] | S. saprophyticus MBC [4] | P. mirabilis MIC [5] | P. mirabilis MBC [5] | mean inhibitory concentration (MIC) [6] [µM] | MBC against E. coli [3] [µM] | MIC against E. coli [3] [µM] | antimicrobial activity against E. coli (in words) [3] | antimicrobial activity against E. coli (in words) ([3]; listed as 1-71) | antimicrobial activity against S. saprophyticus (in words) ([4]; MIC/MBC based, mostly compared to full-length RNase 7)
F:46-97: recombinant middle RNase 7 fragment, amino acids 46 to 97, beta sheets 2-4, N-terminal His tag ({His tag}-EPFSSVAATCQTPKIACKNGDKNCHQSHGPVSLTMCKLTSGKYPNCRYKEKR; ends and bridges not checked) | enhanced permeabilization and death compared to the full-length protein; also recorded: potent membrane penetrating activity | no activity compared to full length protein; also recorded: negligible activity against S. saprophyticus | two-fold higher | 0.88 µM | 1.75 | two-fold higher | 0.44 | 1.75 µM | 3.5 µM | >3.5** uM |  |  |  |  |  | 
F:1-71: recombinant N-terminal RNase 7 fragment, amino acids 1 to 71 (SEQ ID NO: 3), N-terminal His tag (protein, listed as Homo sapiens, N-terminal His tag) KPKGMTSSQWFKIQHMQPSPQACNSAMKNINKHTKRCKDLNTFLHEPFSSVAATCQTPKIACKNGDKNCHQ | lower permeability against E. coli | shows permeability against S. Saprophyticus | seven-fold higher | 1.93** uM | 3.86 |  | 0.23 | >0.92* uM | .44 µM | .88 µM | 0.63 | 3.86 | 1.93 | lower activity against E. coli; also recorded: markedly reduced activity against E. coli | least activity; also recorded: significantly decreased activity | shows antimicrobial activity against S. saprophyticus; also recorded: same activity to S. saprophyticus as full length protein
F:30-97: recombinant middle RNase 7 fragment, amino acids 30 to 97, first four beta sheets, N-terminal His tag (protein, ends and bridges not checked, recombinant middle RNase 7 fragment, amino acids 30 to 97, first four beta sheets, N-terminal His tag) {His tag}-INKHTKRCKDLNTFLHEPFSSVAATCQTPKIACKNGDKNCHQSHGPVSLTMCKLTSGKYPNCRYKEKR | less activity when compared with full-length RNase 7 | less activity when compared with full-length RNase 7 | two-fold higher | 0.44 µM | 0.88 | two-fold higher | 0.44 | 1.75* uM | >3.5** uM | >3.5** uM |  |  |  |  |  | 

From patent US20150072922A1, “RNASE 7 ANTIMICROBIAL PEPTIDES” (THE RESEARCH INSTITUTE AT NATIONWIDE CHILDREN'S HOSPITAL, priority 2012, published 2015)
